Experimental data taken from patent US20240101670A1 (Eli Lilly, published 2024).
Several values for one entry are separate records, joined by “and”; a condition that tells them apart may be missing. Equal values may be shown once.

T1: human LAIR1 on cells (human, UniProt Q6GTX8 22-287)
T1 sequence: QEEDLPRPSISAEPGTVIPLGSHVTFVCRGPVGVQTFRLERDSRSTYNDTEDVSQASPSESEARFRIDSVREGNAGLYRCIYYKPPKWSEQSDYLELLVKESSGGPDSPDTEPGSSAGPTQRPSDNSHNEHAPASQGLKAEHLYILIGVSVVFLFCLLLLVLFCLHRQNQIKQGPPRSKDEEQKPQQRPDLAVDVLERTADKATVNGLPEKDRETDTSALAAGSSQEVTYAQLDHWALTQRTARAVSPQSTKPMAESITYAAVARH

T2: soluble, extracellular domain (ECD) of LAIR1 (human, UniProt Q6GTX8 22-163)
T2 construct: Produced recombinantly; also called LAIR1-ECD; LAIR1 ECD protein
T2 chain: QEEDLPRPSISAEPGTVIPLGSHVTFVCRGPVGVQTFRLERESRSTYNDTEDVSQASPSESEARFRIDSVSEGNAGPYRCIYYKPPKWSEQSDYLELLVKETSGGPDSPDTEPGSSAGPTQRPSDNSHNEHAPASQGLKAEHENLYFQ

T3: LAIR2 (human, UniProt Q6ISS4 22-152)
T3 construct: also called human LAIR2
T3 sequence (looked up): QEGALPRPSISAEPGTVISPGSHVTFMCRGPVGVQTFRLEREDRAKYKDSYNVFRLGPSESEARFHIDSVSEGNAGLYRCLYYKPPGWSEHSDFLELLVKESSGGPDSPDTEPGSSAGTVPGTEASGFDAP

B1: mAb1 (antibody, human IgG2, kappa)
heavy: QVQLQESGPGLVKPSETLSLTCTAFGGSISGHYWSWIRQPAGKGLEWIGRIYPSGGTNKNPSLKSRVTMSVDTSKNQFSLKLSSVTAADTAVYYCVRDYWDDYYGMDVWGQGTTVTVSSASTKGPSVFPLAPSSRSTSESTAALGCLVKDYFPEPVTVSWNSGALTSGVHTFPAVLQSSGLYSLSSVVTVPSSNFGTQTYTCNVDHKPSNTKVDKTVERKCCVECPPCPAPPVAGPSVFLFPPKPKDTLMISRTPEVTCVVVDVSHEDPEVQFNWYVDGMEVHNAKTKPREEQFNSTFRVVSVLTVVHQDWLNGKEYKCKVSNKGLPAPIEKTISKTKGQPREPQVYTLPPSREEMTKNQVSLTCLVKGFYPSDIAVEWESNGQPENNYKTTPPMLDSDGSFFLYSKLTVDKSRWQQGNVFSCSVMHEALHNHYTQKSLSLSPG
light: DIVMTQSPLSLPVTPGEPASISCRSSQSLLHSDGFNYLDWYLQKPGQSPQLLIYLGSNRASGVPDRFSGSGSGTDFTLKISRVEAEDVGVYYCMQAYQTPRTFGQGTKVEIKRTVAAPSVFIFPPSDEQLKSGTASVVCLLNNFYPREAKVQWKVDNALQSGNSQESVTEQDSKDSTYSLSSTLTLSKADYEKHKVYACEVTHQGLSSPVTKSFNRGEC
notes: also called anti-human LAIR1 antibody mAb1
B2: mAb4 (antibody, human IgG4 S228P, kappa)
heavy: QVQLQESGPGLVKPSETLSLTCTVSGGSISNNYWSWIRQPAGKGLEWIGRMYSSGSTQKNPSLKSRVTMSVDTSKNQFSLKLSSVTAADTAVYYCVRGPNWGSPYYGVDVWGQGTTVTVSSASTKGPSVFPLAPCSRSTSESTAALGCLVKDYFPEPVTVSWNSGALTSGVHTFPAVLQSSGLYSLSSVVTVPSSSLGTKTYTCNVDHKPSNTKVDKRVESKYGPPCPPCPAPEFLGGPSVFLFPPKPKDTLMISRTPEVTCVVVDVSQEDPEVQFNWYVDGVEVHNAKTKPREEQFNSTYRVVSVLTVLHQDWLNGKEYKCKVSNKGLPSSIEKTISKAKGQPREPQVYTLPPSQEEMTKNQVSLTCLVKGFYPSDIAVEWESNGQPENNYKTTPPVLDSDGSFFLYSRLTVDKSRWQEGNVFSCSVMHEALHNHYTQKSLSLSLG
light: DIVMTQSPLSLPVTPGEPASISCRSSPSLLHSDGYNWLDWYLQKPGQSPQLLIYLGSNRASGVPDRFSGSGSGTDFTLKISRVEAEDVGVYYCMQAHQTPFTFGQGTKVEIKRTVAAPSVFIFPPSDEQLKSGTASVVCLLNNFYPREAKVQWKVDNALQSGNSQESVTEQDSKDSTYSLSSTLTLSKADYEKHKVYACEVTHQGLSSPVTKSFNRGEC
notes: also called anti-human LAIR1 mAb4; LAIR1 agonist antibody
B3: mAb2 (antibody, human IgG2, kappa)
heavy: QVQLQESGPGLVKPSETLSLTCTVSGGSISNNYWSWIRQPAGKGLEWIGRMYSSGSTQKNPSLKSRVTMSVDTSKNQFSLKLSSVTAADTAVYYCVRGPNWGSPYYGVDVWGQGTTVTVSSASTKGPSVFPLAPSSRSTSESTAALGCLVKDYFPEPVTVSWNSGALTSGVHTFPAVLQSSGLYSLSSVVTVPSSNFGTQTYTCNVDHKPSNTKVDKTVERKCCVECPPCPAPPVAGPSVFLFPPKPKDTLMISRTPEVTCVVVDVSHEDPEVQFNWYVDGMEVHNAKTKPREEQFNSTFRVVSVLTVVHQDWLNGKEYKCKVSNKGLPAPIEKTISKTKGQPREPQVYTLPPSREEMTKNQVSLTCLVKGFYPSDIAVEWESNGQPENNYKTTPPMLDSDGSFFLYSKLTVDKSRWQQGNVFSCSVMHEALHNHYTQKSLSLSPG
light: B2 light
notes: also called anti-human LAIR1 antibody mAb2

What was measured:
human LAIR1 on cells [1] = target: T1, human LAIR1 on cells; experiment: cell-based or functional assay
[2] = target: cynomolgus monkey LAIR1 on cells (cynomolgus monkey); experiment: cell-based or functional assay
human LAIR1 on cells [3] = target: T1, human LAIR1 on cells; experiment: cell-based or functional assay; remark: listed apart in the source
human LAIR1 on cells [4] = target: T1, human LAIR1 on cells; experiment: cell-based or functional assay; remark: listed apart in the source
human LAIR1 on cells [5] = target: T1, human LAIR1 on cells; experiment: flow cytometry, Jurkat-hLAIR1+ cells
Method: (§1) The anti-human LAIR1 antibodies were evaluated for binding to human and cynomolgus monkey (cyno) LAIR1 engineered cell lines and primary human T cells that endogenously express LAIR1. Jurkat-hLAIR1+ (Jurkat cell overexpressing human LAIR1), Jurkat-LAIR1ko (Jurkat cell knocking out human LAIR1), Jurkat-cyLAIR1+ cells (Jurkat LAIR1ko cell expressing cyno LAIR1), and primary human T cells were incubated with the anti-human LAIR1 test antibodies. […] Cells were then washed and incubated with anti-human IgG Alexa Fluor 647 secondary antibody for 20 minutes at 4° C. Cells were then washed and antibody binding was evaluated by flow cytometry. For primary human T cells, cells were also stained for CD4 and CD8 to delineate CD4+ and CD8+ T cells.

[6] = target: T4, cynomolgus monkey LAIR1 on cells (cynomolgus monkey); experiment: flow cytometry, Jurkat-cyLAIR1+ cells
T4 construct: whole, on cells; Jurkat LAIR1ko cells expressing cyno LAIR1; also called cyno LAIR1; cyLAIR1
Method: as §1

human LAIR1 on cells [7] = target: T1, human LAIR1 on cells; experiment: flow cytometry, primary human CD4+ T cells (endogenous LAIR1)
Method: as §1

human LAIR1 on cells [8] = target: T1, human LAIR1 on cells; experiment: flow cytometry, primary human CD8+ T cells (endogenous LAIR1)
Method: as §1

[9] = target: T2, soluble, extracellular domain (ECD) of …; experiment: SPR, Biacore 8K, 37 °C, antibody captured on anti-human kappa, LAIR1-ECD as analyte
Method: Antibody binding affinity and kinetics were determined by surface plasmon resonance (SPR) using a Biacore 8K (Cytivia Life Sciences). Measurements were performed at 37° C. using HBS-EP+ as the running buffer (150 mM sodium chloride, 3 mM EDTA, 0.05% (w/v) surfactant P-20, and 10 mM HEPES, pH7.4). Binding experiments used the soluble, extracellular domain (ECD) of LAIR1 (SEQ ID NO: 17), produced recombinantly, which was diluted to working concentration in HBS-EP+ containing 0.1 mg/mL Bovine serum albumin. Goat anti-Human kappa (Southern Biotech) was immobilized on all eight flow cells of a CM4 sensor chip using an amine coupling kit.
Binding was evaluated using multiple analytical cycles. Each cycle is performed at a flow rate of 30 μL/minute and consists of the following steps: injection of antibody over a different flow cell (25 μL of antibody at 0.5 μg/mL at 10 μL/minute), injection of 75 μL (30 μL/min, for 150 seconds) of each LAIR1-ECD dilution (starting at 1 μM and using three-fold serial dilutions to 1.4 nM for each cycle, with one injection for each concentration) followed by a 1200 second delay for dissociation, and chip surface regeneration using three 15 μL injections (30 μL/min, for 30 seconds) of 10 mM glycine hydrochloride, pH1.7. Association and dissociation rates for each cycle were determined by fitting of the biosensor data to a simple 1:1 association model using the provided instrument analysis software to extract the kₒₙ and koff rate constants; the equilibrium binding constant KD was calculated using the relationship Kd=koff/kₒₙ.

human LAIR1 on cells [10] = target: T1, human LAIR1 on cells; experiment: cell-based or functional assay; remark: listed apart in the source
LAIR2 = target: T3, LAIR2; experiment: ELISA on hLAIR2, O.D.560 against antibody concentration
human LAIR1 on cells [11] = target: T1, human LAIR1 on cells; experiment: in vivo receptor occupancy by FACS on splenocytes, Treg; fit table; log10 of the dose, unit not given
human LAIR1 on cells [12] = target: T1, human LAIR1 on cells; experiment: in vivo receptor occupancy by FACS on splenocytes, CD4 T cells; fit table; log10 of the dose, unit not given
human LAIR1 on cells [13] = target: T1, human LAIR1 on cells; experiment: in vivo receptor occupancy by FACS on splenocytes, CD8 T cells; fit table; log10 of the dose, unit not given
Excerpt: Human peripheral blood mononuclear cells (PBMCs) were engrafted into NSG mice where the human immune cells recognize the mouse as foreign and mount an immune response resulting in Graft versus Host Disease (GvHD). […] Blood was obtained on day 5 by retro-orbital sinus and day 8 by cardiac puncture and processed for analyses of serum cytokines (MSD human pro-inflammatory cytokine panel) and drug exposure (antigen capture ELISA).

Human C1q = target: T5, Human C1q (human, UniProt P02745 23-245; P02746 28-253; P02747 29-245); experiment: ELISA: antibody coated on the plate at the concentration shown, human C1q added at 10 ug/mL, detection with sheep anti-human C1q-HRP, OD450
T5 construct: Bought (MS Biomedical); also called complement component C1q
T5 sequence (P02745 23-245 limits assumed, chain 1 of 3): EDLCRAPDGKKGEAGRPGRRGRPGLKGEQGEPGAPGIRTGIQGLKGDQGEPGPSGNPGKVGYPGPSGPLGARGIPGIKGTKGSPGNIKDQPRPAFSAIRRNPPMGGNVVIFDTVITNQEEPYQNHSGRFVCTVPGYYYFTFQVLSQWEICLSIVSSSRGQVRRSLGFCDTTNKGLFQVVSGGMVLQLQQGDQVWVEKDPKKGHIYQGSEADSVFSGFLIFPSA
T5 sequence (P02746 28-253 limits assumed, chain 2 of 3): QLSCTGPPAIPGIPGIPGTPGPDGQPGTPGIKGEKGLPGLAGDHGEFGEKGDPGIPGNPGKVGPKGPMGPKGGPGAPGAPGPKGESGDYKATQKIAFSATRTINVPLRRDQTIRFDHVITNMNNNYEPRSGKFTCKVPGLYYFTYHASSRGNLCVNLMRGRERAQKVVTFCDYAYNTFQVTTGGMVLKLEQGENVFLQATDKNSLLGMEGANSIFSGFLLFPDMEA
T5 sequence (P02747 29-245 limits assumed, chain 3 of 3): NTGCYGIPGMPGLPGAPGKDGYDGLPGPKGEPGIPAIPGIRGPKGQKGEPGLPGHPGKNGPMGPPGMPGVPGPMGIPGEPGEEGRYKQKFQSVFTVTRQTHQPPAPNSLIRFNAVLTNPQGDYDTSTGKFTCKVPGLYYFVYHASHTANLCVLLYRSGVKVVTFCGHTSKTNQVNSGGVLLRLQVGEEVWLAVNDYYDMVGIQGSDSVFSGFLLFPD
Method: Testing was performed in duplicate wells. The plate was sealed and incubated overnight at 4° C. The coating reagent was removed from each well, and 200 μL/well of casein blocking reagent (Thermo) was added. The plate was sealed and incubated for 2 hours at room temperature (RT). Each well was washed 3 times with wash buffer (1×TBE with 0.05% Tween 20). One hundred microliters per well of Human C1q (MS Biomedical) at 10 μg/mL diluted in casein blocking reagent was added and incubated for 3 hours at RT. The plate was then washed three times with wash buffer before 100 μL/well of a 1:800 times dilution of Sheep anti-human C1q-HRP (Abcam #ab46191) in casein blocker was added and incubated for 1 hour at RT. The plate was washed 6 times with wash buffer, and 100 μL/well of TMB Substrate (Pierce) was added to each well and incubated for 7 minutes. […] Optical density was immediately measured using a colorimetric microplate reader set to 450 nm.

Binder | IC50 of antibody activity, Jurkat-hLAIR1+ NFAT (human LAIR1 on cells [1]) [µg/mL] | Inhibition of NFAT Activity (% inhibition vs. no antibody), Jurkat-hLAIR1+ (human LAIR1 on cells [1]) [%] | Inhibition of NFAT Activity (% inhibition vs. no antibody), Jurkat-cyLAIR1+ [2] [%] | Inhibition of IL-6 response at 8 ng/mL (% inhibition vs. no antibody), primary human B cells (human LAIR1 on cells [3]) [%] | Inhibition of IFN-γ response at 1 µg/mL (% inhibition vs. no antibody), primary human T cells (human LAIR1 on cells [4]) [%] | EC50 (human LAIR1 on cells [5]) [µg/mL] | EC50 [6] [µg/mL] | EC50 (human LAIR1 on cells [7]) [µg/mL] | EC50 (human LAIR1 on cells [8]) [µg/mL] | Kd [9] [nM] | koff [9] [s⁻¹] | kon [9] [M⁻¹ s⁻¹] | IC50 of inhibition of B cell IL-6 response to BCR stimulation (human LAIR1 on cells [10]) | IC50 of inhibition of Jurkat-hLAIR1+ NFAT activation (human LAIR1 on cells [10]) [nM] | binding result (LAIR2) | LogIC50 of % receptor occupancy, Treg (human LAIR1 on cells [11]) | LogIC50 of % receptor occupancy, CD4 T cells (human LAIR1 on cells [12]) | LogIC50 of % receptor occupancy, CD8 T cells (human LAIR1 on cells [13]) | binding result (Human C1q)
B1 | 0.00942 | 54.2 | 44.2 | 60.2 | 35.7 | 0.0548 | 0.0784 | 0.037 | 0.0489 | 0.121 | 0.000174 | 1.44e+06 |  |  |  |  |  |  | 
B2 | 0.00666 | 60.4 | 65.5 | 42.7 | 41.1 | 0.0565 | 0.0893 | 0.0162 | 0.0349 | 0.291 | 0.000317 | 1.09e+06 | 0.0002 nM and 0.03 ng/mL | 0.045 | no binding (tested: 10 ug/ml) | -0.771 | -0.933 | -0.864 | no binding (tested: 10 ug/mL)
B3 | 0.00858 | 49.8 | 59.6 | 35.4 | 45.8 | 0.058 | 0.0824 | 0.0288 | 0.0414 | 0.312 | 0.000341 | 1.09e+06 |  |  |  |  |  |  | 
